Measured values: IntAct's records for PubMed 20389281

What was measured:
[1] = target: snai1_human SNAI1 (UniProt O95863)
[2] = target: snai1_human SNAI1 (UniProt O95863); remark: listed apart in the source

Sequence of snai1_human SNAI1 (O95863 whole entry): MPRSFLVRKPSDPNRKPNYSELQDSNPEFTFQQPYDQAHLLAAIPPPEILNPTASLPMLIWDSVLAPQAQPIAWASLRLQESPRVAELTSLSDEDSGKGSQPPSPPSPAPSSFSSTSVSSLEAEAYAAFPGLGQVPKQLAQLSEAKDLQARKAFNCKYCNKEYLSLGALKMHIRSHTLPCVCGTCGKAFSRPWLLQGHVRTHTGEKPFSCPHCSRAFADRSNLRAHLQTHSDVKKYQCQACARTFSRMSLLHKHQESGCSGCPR

Substance | effect of a mutation on the interaction [1] | effect of a mutation on the interaction [2]
Lysine-specific histone demethylase 1A (Homo sapiens) (from UniProt O60341) D375A | disrupting interaction | 
Lysine-specific histone demethylase 1A (Homo sapiens) (from UniProt O60341) D556A |  | disrupting interaction

The remaining lines, values ahead:

effect of a mutation on the interaction [1] | effect of a mutation on the interaction [2] | Substance
 | disrupting interaction | Lysine-specific histone demethylase 1A (Homo sapiens) (from UniProt O60341) D553A
 | disrupting interaction | Lysine-specific histone demethylase 1A (Homo sapiens) (from UniProt O60341) D555A
disrupting interaction |  | Lysine-specific histone demethylase 1A (Homo sapiens) (from UniProt O60341) E379A
